Test results reported in publication PMC11550485 (Science (New York, N.Y.), 2023).

Molecular target: 6×His-GFP-tau (human, UniProt P10636-8 1-441)
Test: pull-down

- binding result: binds
B1: GST-TRIM11 (natural protein, human, UniProt Q96F44 1-468, looked up)
chain: MAAPDLSTNLQEEATCAICLDYFTDPVMTDCGHNFCRECIRRCWGQPEGPYACPECRELSPQRNLRPNRPLAKMAEMARRLHPPSPVPQGVCPAHREPLAAFCGDELRLLCAACERSGEHWAHRVRPLQDAAEDLKAKLEKSLEHLRKQMQDALLFQAQADETCVLWQKMVESQRQNVLGEFERLRRLLAEEEQQLLQRLEEEELEVLPRLREGAAHLGQQSAHLAELIAELEGRCQLPALGLLQDIKDALRRVQDVKLQPPEVVPMELRTVCRVPGLVETLRRFRGDVTLDPDTANPELILSEDRRSVQRGDLRQALPDSPERFDPGPCVLGQERFTSGRHYWEVEVGDRTSWALGVCRENVNRKEKGELSAGNGFWILVFLGSYYNSSERALAPLRDPPRRVGIFLDYEAGHLSFYSATDGSLLFIFPEIPFSGTLRPLFSPLSSSPTPMTICRPKGGSGDTLAPQ
